5 molecules from article PMC4894940, “The function of the two-pore channel TPC1 depends on dimerization of its carboxy-terminal helix” (Cellular and Molecular Life Sciences: CMLS, 2016) can be followed below.

Format in all cases: cell-based, Arabidopsis thaliana
For one assay, the system named is tonoplast. The assay is described as follows: Confocal localization of GFP-fusions in tpc1-2 mesophyll protoplasts. The settings on record: GFP-fusion in tpc1-2 mesophyll protoplasts. The protocol:
(§1) Expression of GFP-fusion proteins for electrophysiological measurements or confocal microscopy was performed in A. thaliana tpc1-2 mesophyll protoplasts as described. Briefly, leaves were enzymatically digested to release mesophyll protoplasts, which were then transformed by the polyethylene glycol method. Protoplasts were used for electrophysiological measurements and subcellular localization of GFP fluorescence 2–4 days after transformation.
Fluorescence signals were detected and documented with a TCS SP2 confocal laser scanning microscope and the Leica Confocal Software (Leica Microsystems). A 488 nm Argon laser was used for excitation of GFP and of the auto-fluorescence of chlorophyll. GFP-signals were detected from 500 to 556 nm and chlorophyll signals from 675 to 767 nm. Venus was excited with a […] and detected in the range from 520 to 556 nm, the corresponding chlorophyll signals were detected from 637 to 736 nm. Images were processed with Photoshop (Adobe Systems).

Assay [1] relates to slow vacuolar (SV) currents in tpc1-2 vacuoles. The assay is described as follows: Whole-vacuolar patch-clamp of TPC1 variants (SV currents). The settings on record: for whole-vacuolar SV currents: GFP-fusion in tpc1-2 vacuoles, 1 mM CaCl2 bath, pH 7.5; for reduction of whole-vacuolar current amplitude: relative to TPC1 wild type. On the procedure:
as §1
(§2) Patch-clamp experiments were performed on transformed vacuoles harboring two-pore channels as identified by GFP fluorescence. The pipette (luminal) solution consisted of 100 mM K-gluconate, 2 mM MgCl2, 10 mM EGTA, 10 mM MES, pH 5.5/Tris. The bath (cytosolic) solution contained 50 mM K-gluconate, 1 mM CaCl2, 1 mM MgCl2, 2 mM DTT, 10 mM HEPES, pH 7.5/Tris. Solutions were adjusted to 430 mosmol/kg by adding D-sorbitol. For analysis of the TPC1-S706 mutants two further calcium concentrations of the bath solution were used in which 1 mM CaCl2 was substituted by 0.2 mM or 0.05 mM CaCl2, respectively. Competition assays using the CTH peptide were performed on endogenous TPC1 channels in vacuoles isolated from Col-0 plants. Peptides were dissolved at 10 mM in bath solution supplemented with 1 % DMSO and 0.1 % pluronic, and diluted >600-fold for application in patch-clamp recordings. Currents were recorded either in the whole-vacuolar or cytosolic side-out configuration of the patch-clamp technique, using an EPC10 amplifier and the program PULSE (HEKA electronics, Lambrecht, Germany). Recordings and data analysis were performed as described earlier. Relative open probabilities (P o) were determined from tail currents at −53 mV, following pulses to the different test voltages. Tail currents were normalized to the maximum values at 1 mM Ca^2+, plotted as a function of the applied test voltage, and fitted according to the Boltzmann equation: PO=A/1+exp^zF/RT·(Vo-V) where V o and z are parameters for the voltage at half-maximum open probability and the apparent number of gating charges, respectively, and A describes the maximum conductance that is reached under the experimental conditions.

Assay [2] concerns excised cytosolic side-out vacuolar membrane patches of tpc1-2 cells. In words: Excised cytosolic side-out patch recordings of TPC1 variants. Particulars: for current remaining following reduction of Ca2+ from 1 mM to 200 µM: at 107 mV, Ca2+ reduced from 1 mM to 200 µM (n = 3–7). On the procedure: as §1, §2

B1: TPC1ΔC8: truncated TPC1 containing residues 1–725 (protein, UniProt Q94KI8 1-725, looked up, fragment)
chain: MEDPLIGRDSLGGGGTDRVRRSEAITHGTPFQKAAALVDLAEDGIGLPVEILDQSSFGESARYYFIFTRLDLIWSLNYFALLFLNFFEQPLWCEKNPKPSCKDRDYYYLGELPYLTNAESIIYEVITLAILLVHTFFPISYEGSRIFWTSRLNLVKVACVVILFVDVLVDFLYLSPLAFDFLPFRIAPYVRVIIFILSIRELRDTLVLLSGMLGTYLNILALWMLFLLFASWIAFVMFEDTQQGLTVFTSYGATLYQMFILFTTSNNPDVWIPAYKSSRWSSVFFVLYVLIGVYFVTNLILAVVYDSFKEQLAKQVSGMDQMKRRMLEKAFGLIDSDKNGEIDKNQCIKLFEQLTNYRTLPKISKEEFGLIFDELDDTRDFKINKDEFADLCQAIALRFQKEEVPSLFEHFPQIYHSALSQQLRAFVRSPNFGYAISFILIINFIAVVVETTLDIEESSAQKPWQVAEFVFGWIYVLEMALKIYTYGFENYWREGANRFDFLVTWVIVIGETATFITPDENTFFSNGEWIRYLLLARMLRLIRLLMNVQRYRAFIATFITLIPSLMPYLGTIFCVLCIYCSIGVQVFGGLVNAGNKKLFETELAEDDYLLFNFNDYPNGMVTLFNLLVMGNWQVWMESYKDLTGTWWSITYFVSFYVITILLLLNLVVAFVLEAFFTELDLEEEEKCQGQDSQEKRNRRRSAGSKSRSQRVDTLLHHMLGDELSK
modifications: GFP fusion
For B1, the “subcellular localization of GFP-fusion” value in the assay on tonoplast is on record as “localized in the tonoplast”. Also, the “whole-vacuolar SV currents” value in assay [1] is listed as “wild type like”.

B2: TPC1ΔC29: truncated TPC1 containing residues 1–704 (protein, UniProt Q94KI8 1-704, looked up, fragment)
chain: MEDPLIGRDSLGGGGTDRVRRSEAITHGTPFQKAAALVDLAEDGIGLPVEILDQSSFGESARYYFIFTRLDLIWSLNYFALLFLNFFEQPLWCEKNPKPSCKDRDYYYLGELPYLTNAESIIYEVITLAILLVHTFFPISYEGSRIFWTSRLNLVKVACVVILFVDVLVDFLYLSPLAFDFLPFRIAPYVRVIIFILSIRELRDTLVLLSGMLGTYLNILALWMLFLLFASWIAFVMFEDTQQGLTVFTSYGATLYQMFILFTTSNNPDVWIPAYKSSRWSSVFFVLYVLIGVYFVTNLILAVVYDSFKEQLAKQVSGMDQMKRRMLEKAFGLIDSDKNGEIDKNQCIKLFEQLTNYRTLPKISKEEFGLIFDELDDTRDFKINKDEFADLCQAIALRFQKEEVPSLFEHFPQIYHSALSQQLRAFVRSPNFGYAISFILIINFIAVVVETTLDIEESSAQKPWQVAEFVFGWIYVLEMALKIYTYGFENYWREGANRFDFLVTWVIVIGETATFITPDENTFFSNGEWIRYLLLARMLRLIRLLMNVQRYRAFIATFITLIPSLMPYLGTIFCVLCIYCSIGVQVFGGLVNAGNKKLFETELAEDDYLLFNFNDYPNGMVTLFNLLVMGNWQVWMESYKDLTGTWWSITYFVSFYVITILLLLNLVVAFVLEAFFTELDLEEEEKCQGQDSQEKRNRRRSAGS
modifications: C-terminal GFP
B2: the “subcellular localization of GFP-fusion” value with tonoplast is reported as “localized in the tonoplast”. Also, the “whole-vacuolar SV currents” value in assay [1] was “stayed silent”.

B3: TPC1-3LA: leucines L714, 715, 719 of TPC1 replaced by alanine (protein, UniProt Q94KI8 1-733, looked up, variant L714A L715A L719A)
Two pore calcium channel …: MEDPLIGRDSLGGGGTDRVRRSEAITHGTPFQKAAALVDLAEDGIGLPVEILDQSSFGESARYYFIFTRLDLIWSLNYFALLFLNFFEQPLWCEKNPKPSCKDRDYYYLGELPYLTNAESIIYEVITLAILLVHTFFPISYEGSRIFWTSRLNLVKVACVVILFVDVLVDFLYLSPLAFDFLPFRIAPYVRVIIFILSIRELRDTLVLLSGMLGTYLNILALWMLFLLFASWIAFVMFEDTQQGLTVFTSYGATLYQMFILFTTSNNPDVWIPAYKSSRWSSVFFVLYVLIGVYFVTNLILAVVYDSFKEQLAKQVSGMDQMKRRMLEKAFGLIDSDKNGEIDKNQCIKLFEQLTNYRTLPKISKEEFGLIFDELDDTRDFKINKDEFADLCQAIALRFQKEEVPSLFEHFPQIYHSALSQQLRAFVRSPNFGYAISFILIINFIAVVVETTLDIEESSAQKPWQVAEFVFGWIYVLEMALKIYTYGFENYWREGANRFDFLVTWVIVIGETATFITPDENTFFSNGEWIRYLLLARMLRLIRLLMNVQRYRAFIATFITLIPSLMPYLGTIFCVLCIYCSIGVQVFGGLVNAGNKKLFETELAEDDYLLFNFNDYPNGMVTLFNLLVMGNWQVWMESYKDLTGTWWSITYFVSFYVITILLLLNLVVAFVLEAFFTELDLEEEEKCQGQDSQEKRNRRRSAGSKSRSQRVDTAAHHMAGDELSKPECSTSDT
modifications: C-terminal GFP
notes: leucines L714, 715, 719 of TPC1 replaced by alanine
As for B3, in assay [1], the “whole-vacuolar SV currents” value is on record as “loss of SV currents to a similar extent as TPC1-3LP”. In assay [2] (excised cytosolic side-out patch, tpc1-2 cell, linear fit), this molecule showed a single-channel conductance of 58 pS. Besides, the “macroscopic currents in excised patches” value in assay [2] (excised patches, tpc1-2 cells) is reported as “no macroscopic currents were resolved”.

B4: TPC1-S706A (protein, UniProt Q94KI8 1-733, looked up, variant S706A)
Two pore calcium channel …: MEDPLIGRDSLGGGGTDRVRRSEAITHGTPFQKAAALVDLAEDGIGLPVEILDQSSFGESARYYFIFTRLDLIWSLNYFALLFLNFFEQPLWCEKNPKPSCKDRDYYYLGELPYLTNAESIIYEVITLAILLVHTFFPISYEGSRIFWTSRLNLVKVACVVILFVDVLVDFLYLSPLAFDFLPFRIAPYVRVIIFILSIRELRDTLVLLSGMLGTYLNILALWMLFLLFASWIAFVMFEDTQQGLTVFTSYGATLYQMFILFTTSNNPDVWIPAYKSSRWSSVFFVLYVLIGVYFVTNLILAVVYDSFKEQLAKQVSGMDQMKRRMLEKAFGLIDSDKNGEIDKNQCIKLFEQLTNYRTLPKISKEEFGLIFDELDDTRDFKINKDEFADLCQAIALRFQKEEVPSLFEHFPQIYHSALSQQLRAFVRSPNFGYAISFILIINFIAVVVETTLDIEESSAQKPWQVAEFVFGWIYVLEMALKIYTYGFENYWREGANRFDFLVTWVIVIGETATFITPDENTFFSNGEWIRYLLLARMLRLIRLLMNVQRYRAFIATFITLIPSLMPYLGTIFCVLCIYCSIGVQVFGGLVNAGNKKLFETELAEDDYLLFNFNDYPNGMVTLFNLLVMGNWQVWMESYKDLTGTWWSITYFVSFYVITILLLLNLVVAFVLEAFFTELDLEEEEKCQGQDSQEKRNRRRSAGSKARSQRVDTLLHHMLGDELSKPECSTSDT
As to B4, the “reduction of whole-vacuolar current amplitude” value in assay [1] is 53%. Besides, in assay [2], the “current remaining following reduction of Ca2+ from 1 mM to 200 µM” value is recorded as 28 ± 3%.

B5: TPC1-S706D (protein, UniProt Q94KI8 1-733, looked up, variant S706D)
Two pore calcium channel …: MEDPLIGRDSLGGGGTDRVRRSEAITHGTPFQKAAALVDLAEDGIGLPVEILDQSSFGESARYYFIFTRLDLIWSLNYFALLFLNFFEQPLWCEKNPKPSCKDRDYYYLGELPYLTNAESIIYEVITLAILLVHTFFPISYEGSRIFWTSRLNLVKVACVVILFVDVLVDFLYLSPLAFDFLPFRIAPYVRVIIFILSIRELRDTLVLLSGMLGTYLNILALWMLFLLFASWIAFVMFEDTQQGLTVFTSYGATLYQMFILFTTSNNPDVWIPAYKSSRWSSVFFVLYVLIGVYFVTNLILAVVYDSFKEQLAKQVSGMDQMKRRMLEKAFGLIDSDKNGEIDKNQCIKLFEQLTNYRTLPKISKEEFGLIFDELDDTRDFKINKDEFADLCQAIALRFQKEEVPSLFEHFPQIYHSALSQQLRAFVRSPNFGYAISFILIINFIAVVVETTLDIEESSAQKPWQVAEFVFGWIYVLEMALKIYTYGFENYWREGANRFDFLVTWVIVIGETATFITPDENTFFSNGEWIRYLLLARMLRLIRLLMNVQRYRAFIATFITLIPSLMPYLGTIFCVLCIYCSIGVQVFGGLVNAGNKKLFETELAEDDYLLFNFNDYPNGMVTLFNLLVMGNWQVWMESYKDLTGTWWSITYFVSFYVITILLLLNLVVAFVLEAFFTELDLEEEEKCQGQDSQEKRNRRRSAGSKDRSQRVDTLLHHMLGDELSKPECSTSDT
Take B5: in assay [1], the “reduction of whole-vacuolar current amplitude” value stood at 58%. For the same molecule, the “current remaining following reduction of Ca2+ from 1 mM to 200 µM” value in assay [2] turned out to be 24 ± 4%.
